Test results published in patent US20190201496A1 (published 2019).
Like-named read-outs stand apart in the source and are kept apart here. One block for each binder: values may come before it.

Tests used:
Experiment in all cases: SPR; pH 6
human β2-microglobulin [1] = biological target: T1, human β2-microglobulin (UniProt P61769 21-119)
HLA-A2:01 = biological target: T2, HLA-A2:01 (human, UniProt A*02:01, biotinylated (site not stated))
T2 chain: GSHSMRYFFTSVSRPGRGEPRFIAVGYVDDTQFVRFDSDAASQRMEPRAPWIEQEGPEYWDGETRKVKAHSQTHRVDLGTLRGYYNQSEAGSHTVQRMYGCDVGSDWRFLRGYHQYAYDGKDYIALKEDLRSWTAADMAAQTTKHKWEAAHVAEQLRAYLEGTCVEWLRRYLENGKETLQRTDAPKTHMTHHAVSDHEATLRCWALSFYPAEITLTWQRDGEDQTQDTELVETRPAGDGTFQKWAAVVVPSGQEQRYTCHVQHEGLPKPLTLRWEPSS

human β2-microglobulin [2] = biological target: T1, human β2-microglobulin; remark: listed apart in the source
mβ2m = biological target: mβ2m

Kd (human β2-microglobulin [2]): 125 nM
B3: human alpha-fetoprotein (AFP) (ligand)
chain: RTLHRNEYGIASILDSYQCTAEISLADLATIFFAQFVQEATYKEVSKMVKDALTAIEKPTGDEQSSGCLENQLPAFLEELCHEKEILEKYGHSDCCSQSEEGRHNCFLAHKKPTPASIPLFQVPEPVTSCEAYEEDRETFMNKFIYEIARRHPFLYAPTILLWAARYDKIIPSCCKAENAVECFQTKAATVTKELRESSLLNQHACAVMKNFGTRTFQAITVTKLSQKFTKVNFTEIQKLVLDVAHVHEHCCRGDVLDCLQDGEKIMSYICSQQDTLSNKITECCKLTTLERGQCIIHAENDEKPEGLSPNLNRFLGDRDFNQFSSGEKNIFLASFVHEYSRRHPQLAVSVILRVAKGYQELLEKCFQTENPLECQDKGEEELQKYIQESQALAKRSCGLFQKLGEYYLQNAFLVAYTKKAPQLTSSELMAITRKMAATAATCCQLSEDKLLACGEGAADIIIGHLCIRHEMTPVNPGVGQCCTSSYANRRPCFSSLVVDETYVPPAFSDDKFIFHKDLCQAQGVALQTMKQEFLINLVKQKPQITEEQLEAVIADFSGLLEKCCQGQEQEVCFAEEGQKLISKTRAALGV

Kd (human β2-microglobulin [1]): 193 nM
B4: human AFP derived from cord blood (ligand)
chain: RTLHRNEYGIASILDSYQCTAEISLADLATIFFAQFVQEATYKEVSKMVKDALTAIEKPTGDEQSSGCLENQLPAFLEELCHEKEILEKYGHSDCCSQSEEGRHNCFLAHKKPTPASIPLFQVPEPVTSCEAYEEDRETFMNKFIYEIARRHPFLYAPTILLWAARYDKIIPSCCKAENAVECFQTKAATVTKELRESSLLNQHACAVMKNFGTRTFQAITVTKLSQKFTKVNFTEIQKLVLDVAHVHEHCCRGDVLDCLQDGEKIMSYICSQQDTLSNKITECCKLTTLERGQCIIHAENDEKPEGLSPNLNRFLGDRDFNQFSSGEKNIFLASFVHEYSRRHPQLAVSVILRVAKGYQELLEKCFQTENPLECQDKGEEELQKYIQESQALAKRSCGLFQKLGEYYLQNAFLVAYTKKAPQLTSSELMAITRKMAATAATCCQLSEDKLLACGEGAADIIIGHLCIRHEMTPVNPGVGQCCTSSYANRRPCFSSLVVDETYVPPAFSDDKFIFHKDLCQAQGVALQTMKQEFLINLVKQKPQITEEQLEAVIADFSGLLEKCCQGQEQEVCFAEEGQKLISKTRAALGV

Continued, binder first:

B1: hAFP N-His (protein)
chain: RTLHRNEYGIASILDSYQCTAEISLADLATIFFAQFVQEATYKEVSKMVKDALTAIEKPTGDEQSSGCLENQLPAFLEELCHEKEILEKYGHSDCCSQSEEGRHNCFLAHKKPTPASIPLFQVPEPVTSCEAYEEDRETFMNKFIYEIARRHPFLYAPTILLWAARYDKIIPSCCKAENAVECFQTKAATVTKELRESSLLNQHACAVMKNFGTRTFQAITVTKLSQKFTKVNFTEIQKLVLDVAHVHEHCCRGDVLDCLQDGEKIMSYICSQQDTLSNKITECCKLTTLERGQCIIHAENDEKPEGLSPNLNRFLGDRDFNQFSSGEKNIFLASFVHEYSRRHPQLAVSVILRVAKGYQELLEKCFQTENPLECQDKGEEELQKYIQESQALAKRSCGLFQKLGEYYLQNAFLVAYTKKAPQLTSSELMAITRKMAATAATCCQLSEDKLLACGEGAADIIIGHLCIRHEMTPVNPGVGQCCTSSYANRRPCFSSLVVDETYVPPAFSDDKFIFHKDLCQAQGVALQTMKQEFLINLVKQKPQITEEQLEAVIADFSGLLEKCCQGQEQEVCFAEEGQKLISKTRAALGV
Kd (human β2-microglobulin [1]): 96.9 nM

B2: AFP (ligand)
chain: RTLHRNEYGIASILDSYQCTAEISLADLATIFFAQFVQEATYKEVSKMVKDALTAIEKPTGDEQSSGCLENQLPAFLEELCHEKEILEKYGHSDCCSQSEEGRHNCFLAHKKPTPASIPLFQVPEPVTSCEAYEEDRETFMNKFIYEIARRHPFLYAPTILLWAARYDKIIPSCCKAENAVECFQTKAATVTKELRESSLLNQHACAVMKNFGTRTFQAITVTKLSQKFTKVNFTEIQKLVLDVAHVHEHCCRGDVLDCLQDGEKIMSYICSQQDTLSNKITECCKLTTLERGQCIIHAENDEKPEGLSPNLNRFLGDRDFNQFSSGEKNIFLASFVHEYSRRHPQLAVSVILRVAKGYQELLEKCFQTENPLECQDKGEEELQKYIQESQALAKRSCGLFQKLGEYYLQNAFLVAYTKKAPQLTSSELMAITRKMAATAATCCQLSEDKLLACGEGAADIIIGHLCIRHEMTPVNPGVGQCCTSSYANRRPCFSSLVVDETYVPPAFSDDKFIFHKDLCQAQGVALQTMKQEFLINLVKQKPQITEEQLEAVIADFSGLLEKCCQGQEQEVCFAEEGQKLISKTRAALGV
Kd (HLA-A2:01): 35.9 nM

B5: hAFP cord (ligand)
chain: RTLHRNEYGIASILDSYQCTAEISLADLATIFFAQFVQEATYKEVSKMVKDALTAIEKPTGDEQSSGCLENQLPAFLEELCHEKEILEKYGHSDCCSQSEEGRHNCFLAHKKPTPASIPLFQVPEPVTSCEAYEEDRETFMNKFIYEIARRHPFLYAPTILLWAARYDKIIPSCCKAENAVECFQTKAATVTKELRESSLLNQHACAVMKNFGTRTFQAITVTKLSQKFTKVNFTEIQKLVLDVAHVHEHCCRGDVLDCLQDGEKIMSYICSQQDTLSNKITECCKLTTLERGQCIIHAENDEKPEGLSPNLNRFLGDRDFNQFSSGEKNIFLASFVHEYSRRHPQLAVSVILRVAKGYQELLEKCFQTENPLECQDKGEEELQKYIQESQALAKRSCGLFQKLGEYYLQNAFLVAYTKKAPQLTSSELMAITRKMAATAATCCQLSEDKLLACGEGAADIIIGHLCIRHEMTPVNPGVGQCCTSSYANRRPCFSSLVVDETYVPPAFSDDKFIFHKDLCQAQGVALQTMKQEFLINLVKQKPQITEEQLEAVIADFSGLLEKCCQGQEQEVCFAEEGQKLISKTRAALGV
Kd (mβ2m): 167 nM
